± gives the uncertainty stated by the source.
Assay: self-splicing fitness, log relative to wild type (ln ratio); higher = more splicing; Tetrahymena group I intron in knt gene, E. coli kanamycin selection, DiMSum; sequences stand for … in CUCUCU…GGAGGGAAAAGUUAUCAGGCAUGCACCUGGUAGCUAGUCUUUAAACCAAUAGAUUGCAUCGGUUUAAAAGGCAAGACCGUCAAAUUGCGGGAAAGGGGUCAACAGCCGUUCAGUACCAAGUCUCAGGGGAAACUUUGAGAUGGCCUUGCAAAGGGUAUGGUAAUAAGCUGACGGACAUGGUCCUAACCACGCAGCCAAGUCCUAAGUCAACAGAUCUUCUGUUGAUAUGGAUGCAGUUCACAGACUAAAUGUCGGUCGGGGAAGAUGUAUUCUUCUCAUAAGAUAUAGUCGGACCUCUCCUUAAUGGGAGCUAGCGGAUGAAGUGAUGCAACACUGGAGCCGCUGGGAACUAAUUUGUAUGCGAAAGUAUAUUGAUUAGUUUUGGAGUACUCGUGGUCG
How it was run: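 Colonies from six replicate transformations of E. coli BL21(DE3) were pooled and amplicon-sequenced on an Illumina HiSeq 2500. The library placed an intron with all eight P1ex-region nucleotides randomised inside the knt kanamycin-resistance gene on pET-22b(+), and cells grew overnight at 37°C or 30°C on LB agar with or without 25 μg/mL kanamycin (plus 100 μg/mL carbenicillin, 50 μM IPTG, 0.2% rhamnose). Fitness is the DiMSum error-weighted combination of wild-type-normalised replicate fold changes, kanamycin versus none.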

| Sequence | self-splicing fitness (ln) (30 °C) | self-splicing fitness (ln) (37 °C) |
| --- | --- | --- |
| GCGCAGCAAUAUUACGGGAU | -1.66 ± 0.1 | -1.09 ± 0.12 |
| UCGGAGCAAUAUUACGUCGU | -1.37 ± 0.25 | -1.73 ± 0.3 |
| AUCGAGCAAUAUUACGCGCU | -2.97 ± 0.26 | -2.87 ± 0.36 |
| ACUGAGCAAUAUUACGAUAC | -1.07 ± 0.29 | -1.96 ± 0.33 |
| UCCGAGCAAUAUUACGUUAC | -3.25 ± 0.43 | -1.63 ± 0.43 |
| GACGAGCAAUAUUACGUAGA | -2.81 ± 0.26 | -1.98 ± 0.22 |
| CCUUAGCAAUAUUACGGCAC | -3.69 ± 0.29 | -2.71 ± 0.44 |
| UAUGAGCAAUAUUACGCGCG | -2.51 ± 0.31 | -1.01 ± 0.27 |
| GUUCAGCAAUAUUACGUUGU | -1.68 ± 0.096 | -0.287 ± 0.11 |
| GGCCAGCAAUAUUACGUUGU | -0.721 ± 0.072 | -0.537 ± 0.1 |
| UAGUAGCAAUAUUACGACAU | -2.049 ± 0.018 | -0.934 ± 0.034 |
| ACUUAGCAAUAUUACGCGAC | -2.91 ± 0.13 | -2.06 ± 0.17 |
| AGUUAGCAAUAUUACGACCG | -0.776 ± 0.093 | -0.166 ± 0.13 |
| GCGAAGCAAUAUUACGCUAA | -2.54 ± 0.28 | -2.21 ± 0.2 |
| CCCUAGCAAUAUUACGAAUA | -1.47 ± 0.3 | -1.79 ± 0.39 |
| AUAGAGCAAUAUUACGAGGU | -3.58 ± 0.44 | -2.94 ± 0.27 |
| UAAGAGCAAUAUUACGAUUU | -2.44 ± 0.17 | -0.0704 ± 0.12 |

| Sequence | self-splicing fitness (ln) (30 °C) | self-splicing fitness (ln) (37 °C) |
| --- | --- | --- |
| UUCGAGCAAUAUUACGAGAG | -3.55 ± 0.44 | -2.72 ± 0.48 |
| AGGAAGCAAUAUUACGGCGU | -0.156 ± 0.1 | -0.118 ± 0.11 |
| CUAGAGCAAUAUUACGACGG | -0.119 ± 0.12 | 0.393 ± 0.17 |
| CGAAAGCAAUAUUACGGUUA | -1.85 ± 0.12 | -2.11 ± 0.1 |
| GCUAAGCAAUAUUACGCAGG | -2.8 ± 0.26 | -3.55 ± 0.39 |
| UCAAAGCAAUAUUACGCACC |  | -0.644 ± 0.36 |
| ACUGAGCAAUAUUACGGGAC |  | -1.43 ± 0.28 |
| UGGGAGCAAUAUUACGUGGC | -4.39 ± 0.39 | -1.68 ± 0.23 |
| ACCUAGCAAUAUUACGAUCA | -1.23 ± 0.17 | -1.19 ± 0.18 |
| UCCAAGCAAUAUUACGGUCC | -2.7 ± 0.37 | -1.04 ± 0.22 |
| UCCCAGCAAUAUUACGUACU | -3.77 ± 0.19 | -0.776 ± 0.14 |
| AGUGAGCAAUAUUACGGCUA | -0.705 ± 0.24 | -1.38 ± 0.23 |
| UCGGAGCAAUAUUACGCACU | -3.53 ± 0.25 | -2.23 ± 0.23 |
| CCCAAGCAAUAUUACGGGUA | -4.37 ± 0.28 | -2.81 ± 0.16 |
| CUAGAGCAAUAUUACGACCG | 0.13 ± 0.13 | 0.707 ± 0.18 |
| GGCAAGCAAUAUUACGCAUU | -0.374 ± 0.062 | 0.591 ± 0.081 |
| ACCAAGCAAUAUUACGUCAU | -3.16 ± 0.096 | -1.71 ± 0.09 |

From the supplement of paper PMC7877785
